Target: BpGH94MLG, glycoside (cellodextrin) phosphorylase of CAZy family GH94 from Blautia producta ATCC 27340 (Blautia producta ATCC 27340)
Assay: crystal structure; crystal structure of recombinant BpGH94MLG at 2.3 Å; two copies per asymmetric unit; crystallisation methods not shown (supplement)

stoichiometry N: 2
Substance: BpGH94MLG, glycoside (cellodextrin) phosphorylase of CAZy family GH94 from Blautia producta ATCC 27340 (enzyme)
